Test results taken from paper PMC6101539 (Nucleic Acids Research, 2018).
Where two headings read alike, the source gives them in different places.

T1: RarA;SsbA (Bacillus subtilis;Bacillus subtilis, UniProt O34528;P37455 1-421;1-172, |)
T1 sequence 1: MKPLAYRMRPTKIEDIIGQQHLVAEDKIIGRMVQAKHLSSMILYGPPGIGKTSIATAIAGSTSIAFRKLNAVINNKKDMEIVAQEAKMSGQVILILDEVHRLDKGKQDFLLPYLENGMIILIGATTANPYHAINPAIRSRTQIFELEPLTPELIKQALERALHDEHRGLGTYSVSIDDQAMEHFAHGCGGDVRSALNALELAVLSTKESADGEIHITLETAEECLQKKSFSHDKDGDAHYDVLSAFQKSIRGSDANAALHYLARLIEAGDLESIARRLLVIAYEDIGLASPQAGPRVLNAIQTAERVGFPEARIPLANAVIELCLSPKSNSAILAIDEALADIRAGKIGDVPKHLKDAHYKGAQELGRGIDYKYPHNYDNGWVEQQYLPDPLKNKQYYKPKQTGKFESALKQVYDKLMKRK
T1 sequence 2: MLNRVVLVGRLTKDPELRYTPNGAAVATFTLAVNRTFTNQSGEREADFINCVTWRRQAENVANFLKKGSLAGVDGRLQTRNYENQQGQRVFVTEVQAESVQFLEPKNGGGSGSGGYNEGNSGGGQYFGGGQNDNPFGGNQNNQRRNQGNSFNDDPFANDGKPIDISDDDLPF

T2: SsbA (Bacillus subtilis, UniProt P37455 1-172)
T2 sequence: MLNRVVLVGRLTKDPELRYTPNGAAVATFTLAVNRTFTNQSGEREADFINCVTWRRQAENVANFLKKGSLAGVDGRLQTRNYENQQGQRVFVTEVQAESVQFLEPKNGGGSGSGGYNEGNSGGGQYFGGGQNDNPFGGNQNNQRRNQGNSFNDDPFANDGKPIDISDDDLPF

T3: RarA (Bacillus subtilis, UniProt O34528 1-421)
T3 sequence: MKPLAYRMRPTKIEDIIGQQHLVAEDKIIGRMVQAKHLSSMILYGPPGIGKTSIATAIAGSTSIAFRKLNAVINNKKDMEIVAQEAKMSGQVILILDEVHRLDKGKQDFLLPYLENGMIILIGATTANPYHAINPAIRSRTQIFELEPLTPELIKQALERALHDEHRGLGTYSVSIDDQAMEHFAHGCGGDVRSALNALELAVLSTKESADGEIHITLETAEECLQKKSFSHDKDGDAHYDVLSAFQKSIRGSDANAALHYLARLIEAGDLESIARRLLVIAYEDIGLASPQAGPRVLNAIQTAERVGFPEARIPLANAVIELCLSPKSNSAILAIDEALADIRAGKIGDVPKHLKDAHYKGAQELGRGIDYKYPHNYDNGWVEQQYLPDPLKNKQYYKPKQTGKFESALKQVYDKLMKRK

T4: PriA (Bacillus subtilis, UniProt P94461 1-805)
T4 sequence: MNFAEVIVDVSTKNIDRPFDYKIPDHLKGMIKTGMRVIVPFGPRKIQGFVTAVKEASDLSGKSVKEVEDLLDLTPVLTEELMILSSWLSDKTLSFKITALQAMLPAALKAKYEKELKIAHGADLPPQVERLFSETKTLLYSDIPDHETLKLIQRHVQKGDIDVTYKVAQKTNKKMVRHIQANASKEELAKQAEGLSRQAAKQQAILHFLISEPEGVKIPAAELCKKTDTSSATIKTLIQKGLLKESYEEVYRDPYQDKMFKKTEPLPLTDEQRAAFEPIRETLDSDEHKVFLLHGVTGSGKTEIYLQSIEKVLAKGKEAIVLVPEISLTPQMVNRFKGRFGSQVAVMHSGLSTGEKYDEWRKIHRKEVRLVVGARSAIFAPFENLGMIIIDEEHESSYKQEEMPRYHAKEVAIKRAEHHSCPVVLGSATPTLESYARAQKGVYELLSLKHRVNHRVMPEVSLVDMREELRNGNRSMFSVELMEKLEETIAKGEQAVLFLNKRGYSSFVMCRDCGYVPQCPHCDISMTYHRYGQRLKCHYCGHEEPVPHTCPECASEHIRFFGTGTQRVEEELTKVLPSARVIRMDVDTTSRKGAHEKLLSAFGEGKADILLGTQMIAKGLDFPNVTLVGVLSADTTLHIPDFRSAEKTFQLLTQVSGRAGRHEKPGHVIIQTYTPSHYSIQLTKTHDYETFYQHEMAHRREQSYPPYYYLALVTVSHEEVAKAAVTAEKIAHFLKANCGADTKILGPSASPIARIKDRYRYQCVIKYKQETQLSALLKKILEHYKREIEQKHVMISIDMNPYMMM

T5: RarA;PriA (Bacillus subtilis;Bacillus subtilis, UniProt O34528;P94461 1-421;1-805, |)
T5 sequence 1: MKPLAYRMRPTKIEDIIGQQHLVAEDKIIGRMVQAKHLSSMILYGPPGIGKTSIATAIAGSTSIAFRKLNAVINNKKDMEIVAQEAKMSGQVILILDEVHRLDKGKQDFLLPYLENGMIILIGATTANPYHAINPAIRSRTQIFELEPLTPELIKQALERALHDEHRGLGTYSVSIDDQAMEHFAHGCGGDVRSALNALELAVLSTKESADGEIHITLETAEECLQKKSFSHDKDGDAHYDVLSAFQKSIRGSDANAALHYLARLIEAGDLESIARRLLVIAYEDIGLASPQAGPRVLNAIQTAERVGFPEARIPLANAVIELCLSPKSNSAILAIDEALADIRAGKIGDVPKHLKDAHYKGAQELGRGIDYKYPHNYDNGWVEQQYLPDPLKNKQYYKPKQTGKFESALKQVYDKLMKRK
T5 sequence 2: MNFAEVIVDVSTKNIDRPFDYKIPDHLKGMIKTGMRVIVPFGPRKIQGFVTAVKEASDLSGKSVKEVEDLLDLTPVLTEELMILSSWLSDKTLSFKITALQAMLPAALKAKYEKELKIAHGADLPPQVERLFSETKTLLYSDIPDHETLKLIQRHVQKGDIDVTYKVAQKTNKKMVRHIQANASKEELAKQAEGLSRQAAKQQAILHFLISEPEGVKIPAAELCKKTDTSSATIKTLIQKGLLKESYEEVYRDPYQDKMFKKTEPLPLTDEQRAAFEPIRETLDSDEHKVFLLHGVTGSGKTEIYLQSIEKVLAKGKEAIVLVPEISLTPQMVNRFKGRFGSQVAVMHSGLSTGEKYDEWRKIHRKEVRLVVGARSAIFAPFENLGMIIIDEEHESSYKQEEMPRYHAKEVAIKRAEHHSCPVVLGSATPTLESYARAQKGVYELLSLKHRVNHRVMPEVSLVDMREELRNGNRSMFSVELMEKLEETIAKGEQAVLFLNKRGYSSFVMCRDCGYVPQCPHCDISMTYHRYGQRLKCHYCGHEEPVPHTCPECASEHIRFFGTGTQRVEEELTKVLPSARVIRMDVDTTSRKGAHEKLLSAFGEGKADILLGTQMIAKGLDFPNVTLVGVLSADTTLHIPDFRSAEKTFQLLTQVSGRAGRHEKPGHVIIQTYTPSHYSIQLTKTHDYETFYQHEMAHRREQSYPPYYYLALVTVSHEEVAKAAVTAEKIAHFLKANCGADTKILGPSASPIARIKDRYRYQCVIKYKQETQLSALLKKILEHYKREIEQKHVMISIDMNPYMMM


Columns and labels:
Experiment in all cases: EMSA
RarA;SsbA = molecular target: T1, RarA;SsbA
SsbA [1] = molecular target: T2, SsbA
RarA = molecular target: T3, RarA
SsbA [2] = molecular target: T2, SsbA; remark: listed apart in the source
PriA = molecular target: T4, PriA
RarA;PriA = molecular target: T5, RarA;PriA

Binder	binding result (RarA;SsbA)	binding result (SsbA [1])	Kd (RarA) [nM]	binding result (SsbA [2])	Kd (PriA) [nM]	binding result (RarA;PriA)
fork DNA (F1/F2) (dsDNA) DNA 1: TATAAAAAAAGCCAAGCTTGCATGCCTGCAGGTCGACTCTAGAGGATCCCCGGGTACCGAGCTCGAATTCACTGGCCGTCGTTTTACAACG DNA 2: AATTCGTTGTAAAACGACGGCCAGTGAATTCGAGCTCGGTACCCGCCAGCCACAGTCAGACACACACACACTACACACAAAAAAAAAAA	binds	binds	~12			
replicated fork (F1/F2/F3) (dsDNA) DNA 1: TATAAAAAAAGCCAAGCTTGCATGCCTGCAGGTCGACTCTAGAGGATCCCCGGGTACCGAGCTCGAATTCACTGGCCGTCGTTTTACAACG DNA 2: AATTCGTTGTAAAACGACGGCCAGTGAATTCGAGCTCGGTACCCGCCAGCCACAGTCAGACACACACACACTACACACAAAAAAAAAAA DNA 3: TTTTTTTTTTTGTGTGTAGTGTGTGTGTGTCTGACTGTGGCTGG	binds		~19	binds	~3	binds
dsDNA (100U/100D) (dsDNA) DNA 1: GGGCGAATTGGGCCCGACGTCGCATGCTCCTCTAGACTCGAGGAATTCGGTACCCCGGGTTCGAAATCGATAAGCTTACAGTCTCCATTTAAAGGACAAG DNA 2: CTTGTCCTTTAAATGGAGACTGTAAGCTTATCGATTTCGAACCCGGGGTACCGAATTCCTCGAGTCTAGAGGAGCATGCGACGTCGGGCCCAATTCGCCC			~37			
